This is an account of results in patent US20180051082A1 (ANAPTYSBIO, published 2018).

The chains are these.
B1: APE2058 (antibody, human IgG1, V domains shown)
VH: EVQLLESGGGLVQPGGSLRLSCAASGFTFSSYDMSWVRQAPGKGLEWVSTISGGGSYTYYQDSVKGRFTISRDNSKNTLYLQMNSLRAEDTAVYYCASPYYAMDYWGQGTTVTVSS
VL: DIQLTQSPSFLSAYVGDRVTITCKASQDVGTAVAWYQQKPGKAPKLLIYWASTLHTGVPSRFSGSGSGTEFTLTISSLQPEDFATYYCQHYSSYPWTFGQGTKLEIK
notes: expressed from HEK 293 cells as human IgG1; also called anti-PD-1
B2: 6E9 mouse:human chimeric antibody (antibody, human IgG1, V domains shown)
VH: EVMLVESGGGLVKPGGSLKLSCAASGFTFSSYDMSWVRQTPEKRLEWVATISGGGSYTYYQDSVKGRFTISRDNAKNTLYLQMSSLRSEDTAMYYCASPYYAMDYWGQGTSVTVSS
VL: DIVMTQSHKFMSTSVGDRVSITCKASQDVGTAVAWYQQKPGQSPKLLIYWASTRHTGVPDRFTGSGSGTDFTLTISNVQSEDLADYFCQHYSSYPWTFGGGTKLEIKR
notes: also called chimeric 6E9
B3: 10B11 mouse:human chimeric antibody (antibody, human IgG1, V domains shown)
VH: DVKLVESGGGLVKPGGSLKVSCAASGFTFSSYTMSWVRQTPEKRLEWVAVISSGGNSTYYPDSVKGRFTISRDNAKNTLYLQMSSLKSEDTAMYYCTREHYGSSHFAYWGQGTLVTVSA
VL: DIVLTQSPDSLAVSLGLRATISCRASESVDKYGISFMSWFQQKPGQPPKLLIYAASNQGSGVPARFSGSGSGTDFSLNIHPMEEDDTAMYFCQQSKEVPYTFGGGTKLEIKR
notes: also called chimeric 10B11
B4: 9A2 mouse:human chimeric antibody (antibody, human IgG1, V domains shown)
VH: DVKLVESGGGLVKPGGSLKLSCAASGFTFSSYTLSWVRQTPGKRLEWVAVISSGGDYAYYPDSVQGRFTISRDNAKNTLYLQMNSLKSEDTAMYYCSRDHYGTSHFAYWGQGTLVTVSA
VL: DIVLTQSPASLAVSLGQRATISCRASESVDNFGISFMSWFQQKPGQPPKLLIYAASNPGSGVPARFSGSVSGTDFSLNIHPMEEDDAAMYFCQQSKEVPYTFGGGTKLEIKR
notes: also called chimeric 9A2
B5: 6E9 (mouse monoclonal antibody) (antibody, V domains shown)
VH: B2 VH
VL: B2 VL
notes: Mouse hybridoma antibody
B6: 10B11 (mouse monoclonal antibody) (antibody, V domains shown)
VH: B3 VH
VL: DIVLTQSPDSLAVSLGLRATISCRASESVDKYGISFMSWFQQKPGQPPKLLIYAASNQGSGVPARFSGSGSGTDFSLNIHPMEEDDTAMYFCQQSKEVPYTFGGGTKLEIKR
notes: Mouse hybridoma antibody
B7: 9A2 (mouse monoclonal antibody) (antibody, V domains shown)
VH: B4 VH
VL: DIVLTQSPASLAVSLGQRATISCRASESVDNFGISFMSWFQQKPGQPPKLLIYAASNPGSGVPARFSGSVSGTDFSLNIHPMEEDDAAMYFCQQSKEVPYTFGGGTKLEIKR
notes: Mouse hybridoma antibody
B8: APE1923 (antibody, human IgG1, V domains shown)
VH: EVQLLESGGGLVQPGGSLRLSCAASGFTFSSYTMSWVRQAPGKGLEWVSVISSGGNSAYYPDSVQGRFTISRDNSKNTLYLQMNSLRAEDTAVYYCAKEHYGTSHFAYWGQGTLVTVSS
VL: EIVLTQSPATLSLSPGERATLSCRASESVDNFGISFMSWYQQKPGQAPRLLIYAASNPGSGIPARFSGSGSGTDFTLTISSLEPEDFAVYYCQQSKEVPYTFGQGTKLEIK
notes: expressed from HEK 293 cells as human IgG1
B9: APE1924 (antibody, human IgG1, V domains shown)
VH: B8 VH with S57Y
VL: B8 VL
notes: as for B8
B10: APE1922 (antibody, human IgG1, V domains shown)
VH: B8 VH with N56D
VL: B8 VL
notes: as for B8
B11: APE1963 (antibody, human IgG1, V domains shown)
VH: B8 VH with H100Y, T103S
VL: B8 VL
notes: as for B8
B12: APE1950 (antibody, human IgG1, V domains shown)
VH: B8 VH with N56D, A58T
VL: B8 VL
notes: as for B8

Numbering of substitutions follows the chain as printed.

T1 sequence (Q15116 25-288): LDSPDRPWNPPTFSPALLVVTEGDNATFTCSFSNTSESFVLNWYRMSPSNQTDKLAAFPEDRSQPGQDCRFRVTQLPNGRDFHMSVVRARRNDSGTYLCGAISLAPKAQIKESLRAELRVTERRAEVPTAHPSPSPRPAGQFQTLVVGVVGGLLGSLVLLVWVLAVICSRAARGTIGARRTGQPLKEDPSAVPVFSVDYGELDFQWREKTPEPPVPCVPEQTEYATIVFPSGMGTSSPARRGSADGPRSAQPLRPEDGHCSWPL

The first assay has as its target T1, full-length human PD-1 on the cell surface (human, UniProt Q15116 25-288). In words: cell-based or functional assay.
For the molecule B1, the “EC50, multiple human CD4+ T-cell MLR assays” value was found to be 0.02 µg/mL.

The target of a further assay is T1, full-length human PD-1 on the cell …. In words: binding to PD-1 antigens as in Example 1 (format not restated).
Regarding B2, the binding result is “binds”.

B3: the binding result is reported as “binds”.

In the case of B4, the binding result was “binds”.

The next assay shares this target. The experiment in a line: hybridoma screening, flow cytometry on PD-1 CHO-K1 cells (Example 1). How it is done: Hybridoma supernatants from ten 96-well plates were screened for binding to a CHO-K1 cell clone stably transfected with a nucleic acid sequence encoding full length human PD-1 and compared to binding to untransfected CHO-K1 cells. Specifically, hybridoma supernatants were diluted 1:1 with PBS/2% FBS and incubated with an equal volume of PD-1 CHO-K1 cells (2.5×10⁵ cells in PBS, 2% FBS) for 30 minutes at 4° C. Cells were centrifuged, washed once with PBS/1% FBS, and incubated with APC-conjugated goat anti-mouse IgG (H+L) (Southern Biotechnology, Birmingham, Ala.) for 30 minutes at 4° C. […] Mouse IgG levels were quantified by ELISA.
On the technique in general: In flow cytometry, cells or beads pass a laser one at a time.
For B5, the binding result is recorded as “binds”.

For the molecule B6, the binding result is given as “binds”.

With B7, the binding result is given as “binds”.

The target in another assay is T2, monomeric soluble human PD1-Avi-His (human, UniProt Q15116 25-170).
T2 construct: extracellular domain; not shown: Avi tag and His tag at the C-terminus
T2 sequence (Q15116 25-170): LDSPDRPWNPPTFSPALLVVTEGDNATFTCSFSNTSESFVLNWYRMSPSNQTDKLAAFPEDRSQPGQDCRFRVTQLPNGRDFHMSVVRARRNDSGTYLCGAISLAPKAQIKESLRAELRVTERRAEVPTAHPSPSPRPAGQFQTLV
The experiment in a line: KINEXA 3000 solution-based affinity, PD1-Avi-His titrated against constant antibody. The protocol: Solution-based affinity analyses were carried out using a KINEXA™ 3000 assay (Sapidyne Instruments, Boise, Idaho), and results were analyzed using KINEXA™ Pro Software 3.2.6. Experimental parameters were selected to reach a maximum signal with antibody alone between 0.8 and 1.2 V, while limiting nonspecific binding signal with buffer alone to less than 10% of the maximum signal. Azlactone beads (50 mg) were coated with antigen by diluting in a solution of PD-1-Avi-His (50 μg/mL in 1 mL) in 50 mM Na₂CO₃. The solution was rotated at room temperature for 2 hours, and beads were pelleted in a picofuge and washed twice with blocking solution (10 mg/mL BSA, 1 M Tris-HCl, pH 8.0). Beads were resuspended in blocking solution (1 mL), rotated at room temperature for 1 hour, and diluted in 25 volumes PBS/0.02% NaN3. […] All samples were diluted in PBS, 0.2% NaN₃, 1 mg/mL BSA and allowed to equilibrate at room temperature for 30 hours. Additionally, samples containing only antibody and only buffer were tested in order to determine maximum signal and nonspecific binding signal, respectively.
In the case of B1, the Kd (as a rule, the concentration at which binding is half-saturated) turned out to be 0.2 nM.

As to B8, the Kd was found to be 1 nM.

B9: the Kd was approximately 1 nM.

Another assay concerns the target T2, monomeric soluble human PD1-Avi-His. The experiment in a line: SPR (BIACORE T200), antibody captured on anti-human IgG, monomeric PD1-Avi-His flowed, 1:1 fit. The protocol:
SPR analyses were carried out using a BIACORE™ T200 instrument, and kinetic constants were determined using the BIACORE™ T200 evaluation software. Experimental parameters were chosen to ensure that saturation would be reached at the highest antigen concentrations and that Rmax values would be kept under 30 RU. GE anti-Human IgG (Fc-specific, approximately 7,000 RU) was immobilized on a BIACORETM CM5 chip using EDC-activated amine coupling chemistry. Antibodies (0.5 μg/mL, 60 second capture time) were then captured using this surface. Next, monomeric soluble human PD1-Avi-His was flowed over captured antibody (300 second association, 300 second dissociation) using a three-fold serial dilution series from 500 nM to 2 nM. Captured antibody and antigen were removed between each cycle using 3 M MgCl₂ (60 second contact time) in order to ensure a fresh binding surface for each concentration of antigen. The resulting sensorgrams were fit globally using a 1:1 binding model in order to calculate on- and off-rates (kₐ and kd, respectively), as well as affinities (KD).
B1: the Kd stood at 2 nM; the koff – broadly, a measure of how fast the partners let go of each other – was 0.00064 s⁻¹; the kon (commonly the second-order rate constant of association) is 300000 M⁻¹ s⁻¹.

Molecule B8 came in with an equilibrium dissociation constant (Kd) of 9 nM, a koff of 0.0017 s⁻¹ and an on-rate constant (kon) of 190000 M⁻¹ s⁻¹.

On to B10, for which the dissociation constant Kd stood at 15 nM, the koff was 0.0018 s⁻¹ and the on-rate constant (kon) was found to be 130000 M⁻¹ s⁻¹.

B11 returned an equilibrium dissociation constant (Kd) of 17 nM, a koff of 0.001 s⁻¹ and a kon of 58000 M⁻¹ s⁻¹.

B9 had a Kd of 10 nM, a koff of 0.0018 s⁻¹ and an association rate constant (kon) of 180000 M⁻¹ s⁻¹.

Molecule B12 displayed a Kd of 17 nM, a koff of 0.0025 s⁻¹ and an association rate constant (kon) of 150000 M⁻¹ s⁻¹.
